Test results reported in PMC11847541, “Liver fatty acid binding protein FABP1 transfers substrates to cytochrome P450 4A11 for catalysis” (The Journal of Biological Chemistry, 2025).
Values joined by “and” are separate entries in the source; they are usually repeats but may differ in a detail not shown here. Equal values may be shown once.

Legend:
P450 4A11 [1] = biological target: T1, P450 4A11 (Homo sapiens, UniProt Q02928); set-up: made in house; host or cells: E. coli; method as in PMID 25203493; conditions: cited from earlier work
T1 sequence (Q02928 5-519): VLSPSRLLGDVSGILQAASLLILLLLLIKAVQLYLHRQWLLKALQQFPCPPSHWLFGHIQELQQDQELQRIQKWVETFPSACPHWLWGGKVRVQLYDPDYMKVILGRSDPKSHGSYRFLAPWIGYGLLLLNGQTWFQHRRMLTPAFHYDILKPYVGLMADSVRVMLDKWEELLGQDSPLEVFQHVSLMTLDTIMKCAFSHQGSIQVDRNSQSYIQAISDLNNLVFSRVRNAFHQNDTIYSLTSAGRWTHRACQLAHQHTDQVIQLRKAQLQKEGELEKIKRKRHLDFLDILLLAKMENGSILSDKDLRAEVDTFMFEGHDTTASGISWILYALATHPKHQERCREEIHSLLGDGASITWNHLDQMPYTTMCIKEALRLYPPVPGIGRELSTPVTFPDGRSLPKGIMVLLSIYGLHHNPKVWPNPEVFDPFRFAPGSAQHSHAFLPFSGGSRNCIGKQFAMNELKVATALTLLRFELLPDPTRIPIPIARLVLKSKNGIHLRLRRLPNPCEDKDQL

P450 4A11 [2] = biological target: T2, P450 4A11 (Homo sapiens, UniProt Q02928); test: Fluorescence titration of Alexa-FABP1 with P450 4A11; format: binding
T2 construct: made in house; host or cells: E. coli
T2 sequence (Q02928 5-519): T1 sequence (Q02928 5-519)
T2 sequence (P07148 with tags, fused parts or gaps partner): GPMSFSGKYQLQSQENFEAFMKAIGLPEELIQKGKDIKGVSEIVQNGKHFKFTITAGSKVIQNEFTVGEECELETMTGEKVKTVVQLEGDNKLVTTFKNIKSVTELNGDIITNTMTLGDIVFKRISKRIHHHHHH
Method: (§1) The Alexa-FABP1 construct was tested for P450 binding in a fluorescence titration with P450 4A11.
(§2) Figure 10 Binding of Alexa-FABP1 to P450 4A11.A, equilibrium binding titration of Alexa-FABP1 (25 nM) with P450 4A11 as the titrant (0–50 nM). Titrations were performed in 10 mM (closed circles) or 100 mM (open circles) potassium phosphate buffer (pH 7.4). A control reaction was performed with P450 101A1 (P450cam) in 100 mM KPhos (open squares). The change in fluorescence upon protein–protein binding was normalized to the corresponding change in a buffer control. […] Each data point corresponds to one independent replicate, ≥3 biological replicates were collected to confirm the effect. B, kinetics of binding of Alexa-FABP1 (0.125 μM) and P450 4A11 (0.125 μM). Six traces were averaged, and the data were fit to a single exponential curve (in red). The extracted binding rate was 2.0 ± 0.2 s^−1. FABP1, fatty acid binding protein.
Alexa-FABP1 (25 nM [estimated by an asborbance at 280 nm prior to conjugation reaction, accounting for dilution, and assuming no protein loss during the reaction]) was prepared in potassium phosphate buffer (10 mM or 100 mM, pH 7.4) in a 1 ml glass cuvette. A buffer baseline was recorded using an OLIS DM-45 spectrofluorometer (1.24 mm slit width) with excitation wavelength of 470 nm and scanning emission spectra from 500 to 600 nm. P450 4A11 (stored in 100 mM potassium phosphate buffer [pH 7.4] containing 20% glycerol) was titrated (0–50 nM) into the Alexa-FABP1 solution. The same experiment was repeated but with the P450 4A11 buffer used as the titrant to normalize the data for any solvent effect. […] As stimulation was observed by the P450 interaction, the value of one was subtracted from the normalized fluorescence values so that the curve would have an (x, y) intercept of (0, 0). Kd values were calculated fitting plots of the normalized fluorescence at emission maximum versus concentration of P450 4A11 using a quadratic equation in GraphPad Prism software.

P450 101A1 (P450cam) = biological target: T3, P450 101A1 (P450cam) (Pseudomonas putida, UniProt P00183); test: Control fluorescence titration of Alexa-FABP1 with P450 101A1 (P450cam); format: binding, bacterial; conditions: 100 mM KPhos
T3 construct: made in house
T3 sequence (P00183 whole entry, looked up): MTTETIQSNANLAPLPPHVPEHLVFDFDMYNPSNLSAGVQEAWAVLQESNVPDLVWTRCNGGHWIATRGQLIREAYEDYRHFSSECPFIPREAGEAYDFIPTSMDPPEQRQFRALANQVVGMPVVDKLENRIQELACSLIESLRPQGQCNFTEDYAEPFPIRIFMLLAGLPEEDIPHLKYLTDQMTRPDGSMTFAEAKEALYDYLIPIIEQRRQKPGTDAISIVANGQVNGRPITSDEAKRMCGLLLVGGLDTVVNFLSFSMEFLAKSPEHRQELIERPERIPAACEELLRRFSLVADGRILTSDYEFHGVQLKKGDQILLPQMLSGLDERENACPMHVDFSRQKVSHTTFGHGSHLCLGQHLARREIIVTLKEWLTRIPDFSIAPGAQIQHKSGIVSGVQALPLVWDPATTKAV
Method: as §1, §2

P450 4A11 [3] = biological target: T2, P450 4A11; test: Alexa-FABP1 and P450 4A11 association kinetics (stopped-flow fluorescence); format: binding
Method: We then investigated whether the rate of protein–protein association could be estimated using our fluorescent construct. A solution of Alexa-FABP1 (125 nM final concentration) was rapidly mixed with P450 4A11 (125 Nm final concentration), and Alexa-488 fluorescence was monitored over time. The data were fit to a single exponential equation and yielded an association rate of 2.0 ± 0.2 s^−1 (Fig. 10B).
To estimate a rate of interaction for FABP1 and P450, we loaded the protein–protein binding data (Fig. 10B) and fit the data to a simple model, E+F↔EF , as described in the Experimental procedures section. The software fit a kon rate of 2.0 × 10^7 M^−1 s^−1, close to that estimated by using the extracted binding rate ∼2 s^−1 at the concentration (0.125 μM) of either reaction component (i.e., 2 s^−1/0.125 μM = 16 μM^−1 s^−1 = 1.6 × 10^7 M^−1 s^−1).
Mixing solutions (2 ml) of (A) Alexa-FABP1 (0.25 μM [estimated by A280 prior to conjugation reaction, accounting for dilution, and assuming no protein loss during the reaction as described earlier]) and (B) P450 4A11 (0.25 μM) were prepared in potassium phosphate buffer (100 mM, pH 7.4) and loaded into the stopped-flow spectrofluorometer described earlier. The instrument (1.24 mm slit width) was set with an excitation wavelength of 470 nm and Oriel end-on filter for emission >495 nm. The fluorescence maximum of Alexa-FABP1 is 510 nm as described earlier, and stimulation is observed upon protein–protein binding (see “Titrations of Alexa-FABP1 with P450 4A11”). At least six replicate measurements were recorded, the spectra were processed such that the fluorescence gain (from DAUDA binding) began at an (x, y) intercept of (0, 0), and the spectra were averaged. A smoothing factor of 0.4 was applied to the data (in Microsoft Excel), and the resulting curve was fit to a single exponential plot in GraphPad Prism, and the rate of association was extracted. The data were loaded into KinTek Explorer and fit to a minimal kinetic model of protein–protein association (i.e., E+F↔EF ), and a second-order rate constant for the association was extracted.

| Compound | P450 heme Soret spectral shift induced (P450 4A11 [1]) | decrease of Kd on reducing ionic strength (P450 4A11 [2]; 100 mM to 10 mM potassium phosphate) | Kd (P450 4A11 [2]; dependent on ionic strength) | change of Alexa-FABP1 fluorescence (P450 101A1 (P450cam)) | rate of protein–protein association (P450 4A11 [3]; Alexa-FABP1 0.125 μM, P450 4A11 0.125 μM, single exponential) | kon of FABP1–P450 4A11 association (k6) (P450 4A11 [3]; KinTek fit to E+F↔EF) |
| --- | --- | --- | --- | --- | --- | --- |
| O=C(O)CCCCCCCCCCCO [12-OH laurate] | typical type I spectral shift | – | – | – | – | – |
| Alexa-FABP1: FABP1 labeled at Cys-71 with Alexa-488 C5 maleimide | – | ~38 fold | 3 to 124 nM | mild attenuation of fluorescence | ~2 s⁻¹ and 2.0 ± 0.2 s⁻¹ | ~2e+07 M⁻¹ s⁻¹ |
